Test [1] has as its target T1, Rubisco from the cyanobacterium Synechococcus elongatus PCC7942 (hexadecameric holoenzyme of eight LSU and … (Synechococcus elongatus PCC7942, UniProt Q31NB3 1-472; Q31NB2 1-111).
T1 construct: also called Se7942 Rubisco; cyanobacterial Rubisco
The test is described as follows: quantitative immunoblots of SeLSM35 leaf homogenates against purified protein standards. An excerpt:
SDS page, immunoblot and determination of CcmM35/Rubisco content. The crude leaf homogenates used in the carboxylase activity measurements were separated by SDS-PAGE using 4-20% polyacrylamide gradient gels (ThermoScientific, UK). For each sample, the same amount of protein, as determined by Bradford assay, was loaded onto the gel. After electrophoresis, the resolved proteins were transferred to a nitrocellulose membrane (Hybond-C Extra from GE Healthcare Life Sciences) using a western blot apparatus. The nitrocellulose membranes were immunoblotted using one of four primary polyclonal antibodies raised against: cyanobacterial (SePCC6301) Rubisco; tobaccoRubisco; the small subunit of tobacco Rubisco; and CcmM from Se PCC7942. The primary polyclonal antibody to detect CcmM35 was generated in rabbit with His-tagged CcmM58 protein purified from E. coli (Cambridge Research Biochemicals, UK) and used at a dilution of 1:500 in the immunoblots and from 1:500 to 1:2,000 for immunogold labelling, and was highly specific for CcmM (FIG. 2a). The primary antibodies were visualized by means of a secondary goat anti-rabbit peroxidase-conjugated antibody (Sigma). The absolute and relative content of Synechococcus Rubisco and CcmM35 in SeLSM35 leaves were determined using immunoblots with antibodies against CcmM and cyanobacterial Rubisco. […]

For test [2], the target named is T2, Large subunit (LSU) of Synechococcus elongatus PCC7942 Rubisco (Synechococcus elongatus PCC7942, UniProt Q31NB3 1-472).
T2 construct: also called cyanobacterial LSU; Se LSU
In words: native PAGE with Coomassie stain and immunoblots.

B1: CcmM35, internal carboxysomal protein of Synechococcus elongatus PCC7942 (other, UniProt Q03513-2 1-324, looked up)
chain: MSAYNGQGRLSSEVITQVRSLLNQGYRIGTEHADKRRFRTSSWQPCAPIQSTNERQVLSELENCLSEHEGEYVRLLGIDTNTRSRVFEALIQRPDGSVPESLGSQPVAVASGGGRQSSYASVSGNLSAEVVNKVRNLLAQGYRIGTEHADKRRFRTSSWQSCAPIQSSNERQVLAELENCLSEHEGEYVRLLGIDTASRSRVFEALIQDPQGPVGSAKAAAAPVSSATPSSHSYTSNGSSSSDVAGQVRGLLAQGYRISAEVADKRRFQTSSWQSLPALSGQSEATVLPALESILQEHKGKYVRLIGIDPAARRRVAELLIQKP
notes: domain: CcmM35; CcmM35 lacks the amino-terminal domain; Untagged as expressed in the SeLSM35 tobacco line; also called Se-ccmM35 product
In the case of B1, the “stoichiometry of CcmM35 per Rubisco holoenzyme” value in test [1] is ~4.5 CcmM35 per Rubisco holoenzyme.

B2: Small subunit (SSU) of Synechococcus elongatus PCC7942 Rubisco (enzyme, UniProt Q31NB2 1-111, looked up)
chain: MSMKTLPKERRFETFSYLPPLSDRQIAAQIEYMIEQGFHPLIEFNEHSNPEEFYWTMWKLPLFDCKSPQQVLDEVRECRSEYGDCYIRVAGFDNIKQCQTVSFIVHRPGRY
notes: also called cyanobacterial SSU; Se-rbcS product
Regarding B2, the binding result in test [2] is on record as “binds”.
